The values that follow come from PMC3402478, “ADP Ribosylation by PARP-1 Suppresses HOXB7 Transcriptional Activity”.

The target in series [1] is PARP-1 (purified, Trevigen) (UniProt P09874 1-1014). The experiment in a line: EMSA; EMSA: 50 mM Tris-HCl pH 7.5, 50 mM NaCl, 1 mM MgCl2, 0.5 mM DTT, 4% glycerol, 0.5 mM EDTA, 0.25 mg/ml poly(dI-dC), 20 min, gel at room temperature; ONP: 60 mM KCl, 12 mM HEPES pH 7.9, 4 mM Tris-HCl, 5% glycerol, 0.5 mM EDTA, 1 mM DTT, 4 C, 3 h. Particulars: protein: commercial; label: 32P; blunt.
Chain of PARP-1 (purified, Trevigen) (P09874 whole entry): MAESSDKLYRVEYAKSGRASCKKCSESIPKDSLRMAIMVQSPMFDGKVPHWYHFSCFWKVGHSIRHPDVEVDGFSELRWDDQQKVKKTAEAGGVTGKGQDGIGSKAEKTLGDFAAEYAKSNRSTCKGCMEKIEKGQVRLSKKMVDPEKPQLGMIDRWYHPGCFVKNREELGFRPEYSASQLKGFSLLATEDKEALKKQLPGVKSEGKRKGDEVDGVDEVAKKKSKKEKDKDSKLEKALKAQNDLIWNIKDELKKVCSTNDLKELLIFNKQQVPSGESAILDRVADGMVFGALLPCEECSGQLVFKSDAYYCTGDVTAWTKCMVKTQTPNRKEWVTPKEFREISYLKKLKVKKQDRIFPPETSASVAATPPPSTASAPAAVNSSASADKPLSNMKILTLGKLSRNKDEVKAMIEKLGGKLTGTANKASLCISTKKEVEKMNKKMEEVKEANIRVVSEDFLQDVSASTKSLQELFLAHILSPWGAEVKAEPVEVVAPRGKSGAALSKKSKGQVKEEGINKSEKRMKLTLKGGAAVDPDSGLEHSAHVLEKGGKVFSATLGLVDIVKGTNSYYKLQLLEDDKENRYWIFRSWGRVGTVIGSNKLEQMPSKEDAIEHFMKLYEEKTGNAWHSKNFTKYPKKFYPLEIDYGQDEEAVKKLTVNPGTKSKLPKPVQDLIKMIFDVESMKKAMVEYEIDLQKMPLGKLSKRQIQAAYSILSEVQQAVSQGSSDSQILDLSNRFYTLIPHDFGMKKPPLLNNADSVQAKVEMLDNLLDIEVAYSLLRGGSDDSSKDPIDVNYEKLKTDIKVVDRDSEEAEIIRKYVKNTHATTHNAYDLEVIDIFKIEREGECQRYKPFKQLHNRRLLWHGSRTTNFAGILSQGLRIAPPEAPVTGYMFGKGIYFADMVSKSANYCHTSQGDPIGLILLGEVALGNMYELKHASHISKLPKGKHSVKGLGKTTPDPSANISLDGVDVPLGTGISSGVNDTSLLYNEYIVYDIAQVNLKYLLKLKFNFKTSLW

For series [2], the target named is GST-HOXB7 (UniProt P09629 1-217). The experiment in a line: EMSA; no PARP-1; competed by 100-fold unlabeled probe; EMSA: 50 mM Tris-HCl pH 7.5, 50 mM NaCl, 1 mM MgCl2, 0.5 mM DTT, 4% glycerol, 0.5 mM EDTA, 0.25 mg/ml poly(dI-dC), 20 min, gel at room temperature; ONP: 60 mM KCl, 12 mM HEPES pH 7.9, 4 mM Tris-HCl, 5% glycerol, 0.5 mM EDTA, 1 mM DTT, 4 C, 3 h. The conditions noted are these: protein: recombinant; tags: GST; label: 32P; blunt. In general terms: Mobility shift assays separate free from complexed probe on a gel.
Chain of GST-HOXB7 (P09629 whole entry): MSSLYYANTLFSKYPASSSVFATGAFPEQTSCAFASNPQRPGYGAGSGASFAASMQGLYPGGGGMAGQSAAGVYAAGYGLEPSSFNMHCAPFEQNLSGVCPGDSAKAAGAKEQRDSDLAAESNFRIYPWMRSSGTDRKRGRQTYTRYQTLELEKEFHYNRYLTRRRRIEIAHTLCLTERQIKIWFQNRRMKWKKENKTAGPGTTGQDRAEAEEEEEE

B1: HBS EMSA probe (dsDNA)
DNA 1: AAATATCAATTAAATCTTAATTATAA
DNA 2: TTATAATTAAGATTTAATTGATATTT
As for B1, the binding result is given as “no binding” in series [1] and “binds” in series [2].
